Tests used:
[1] = target: PI3Kα-RBD, PIK3CA-RBD(157-289) (human) (UniProt P42336); assay: ITC; RAS GTPase (GMPPNP-bound, 300–500 μM) in the syringe, PI3K isoform or PI3Kα-RBD (30–50 μM) in the cell; 25 °C; 20 mM HEPES pH 7.4, 150 mM NaCl, 5 mM MgCl2, 1 mM TCEP; one set of sites; two replicates
PI3Kα-RBD-K206A (human) = PI3Kα-RBD-K206A (human) (UniProt P42336); assay: as above
PI3Kα-RBD-S231A (human) = PI3Kα-RBD-S231A (human) (UniProt P42336); assay: as above
PI3Kα-RBD-T208A (human) = PI3Kα-RBD-T208A (human) (UniProt P42336); assay: as above
PI3Kα-RBD-Q205A (human) = PI3Kα-RBD-Q205A (human) (UniProt P42336); assay: as above
PI3Kα-RBD-K210A (human) = PI3Kα-RBD-K210A (human) (UniProt P42336); assay: as above
[2] = target: PI3Kα: p110α(2-1068) W1057A/I1058A/F1059A + p85(322-600) (human) (UniProt P42336); assay: ITC; GMPPNP-bound RAS (300–500 μM) in the syringe, PI3K isoform or PI3Kα-RBD (30–50 μM) in the cell; 25 °C; 20 mM HEPES pH 7.4, 150 mM NaCl, 5 mM MgCl2, 1 mM TCEP; one set of sites; duplicates
[3] = target: PI3Kα-RBD, PIK3CA-RBD(157-289) (human) (UniProt P42336); assay: as above
[4] = target: p110α-RBD(157-289) T208A (human) (UniProt P42336); assay: as above
[5] = target: p110α-RBD(157-289) K210A (human) (UniProt P42336); assay: as above
[6] = target: PI3Kδ: p110δ(1-1044) + p85(322-600) (human) (UniProt O00329); assay: as above
[7] = target: p110α-RBD(157-289) K206A (human) (UniProt P42336); assay: as above

RRAS2-M78A, GMPPNP-bound (from UniProt P62070 1-179) (domain or fragment)
Kd [1]: 134 µM | stoichiometry N [1]: 1.2 sites

RRAS2, GMPPNP-bound (from UniProt P62070 1-179) (domain or fragment)
Kd (PI3Kα-RBD-K206A (human)): 107 µM | stoichiometry N (PI3Kα-RBD-K206A (human)): 0.92 sites | Kd (PI3Kα-RBD-S231A (human)): 8.3 µM | stoichiometry N (PI3Kα-RBD-S231A (human)): 0.88 sites | Kd (PI3Kα-RBD-T208A (human)): 45 µM | stoichiometry N (PI3Kα-RBD-T208A (human)): 0.9 sites | Kd (PI3Kα-RBD-Q205A (human)): 8.2 µM | stoichiometry N (PI3Kα-RBD-Q205A (human)): 0.86 sites | Kd (PI3Kα-RBD-K210A (human)): 41.7 µM | stoichiometry N (PI3Kα-RBD-K210A (human)): 0.81 sites

RRAS2-Y38F, GMPPNP-bound (from UniProt P62070 1-179) (domain or fragment)
Kd [1]: 4.3 µM | stoichiometry N [1]: 0.92 sites

RRAS2-Q72H, GMPPNP-bound (from UniProt P62070 1-179) (domain or fragment)
Kd [1]: 14.2 µM | stoichiometry N [1]: 0.85 sites

RRAS2-T52R, GMPPNP-bound (from UniProt P62070 1-179) (domain or fragment)
Kd [1]: 28.5 µM | stoichiometry N [1]: 1.01 sites

MRAS (wild type) (from UniProt O14807 1-178) (domain or fragment)
Kd [2]: 5.3 µM | dH [2]: -17 kcal/mol

RRAS2-F75A, GMPPNP-bound (from UniProt P62070 1-179) (domain or fragment)
Kd [1]: 21.5 µM | stoichiometry N [1]: 1.11 sites

RRAS2-D42E, GMPPNP-bound (from UniProt P62070 1-179) (domain or fragment)
Kd [1]: 16.1 µM | stoichiometry N [1]: 0.89 sites

RRAS2-G23D, GMPPNP-bound (from UniProt P62070 1-179) (domain or fragment)
Kd [1]: 6.4 µM | stoichiometry N [1]: 0.75 sites

RRAS2-D42A, GMPPNP-bound (from UniProt P62070 1-179) (domain or fragment)
Kd [1]: 66.9 µM | stoichiometry N [1]: 1.2 sites

RRAS2-Q72L, GMPPNP-bound (from UniProt P62070 1-179) (domain or fragment)
Kd [1]: 8.5 µM | stoichiometry N [1]: 0.88 sites

RRAS2-E48A, GMPPNP-bound (from UniProt P62070 1-179) (domain or fragment)
Kd [1]: 32.4 µM | stoichiometry N [1]: 0.92 sites

RRAS2-D44A, GMPPNP-bound (from UniProt P62070 1-179) (domain or fragment)
Kd [1]: 28.2 µM | stoichiometry N [1]: 0.81 sites

RRAS2-R63A, GMPPNP-bound (from UniProt P62070 1-179) (domain or fragment)
Kd [1]: 6.4 µM | stoichiometry N [1]: 0.9 sites

RRAS2-G23V, GMPPNP-bound (from UniProt P62070 1-179) (domain or fragment)
Kd [1]: 12.8 µM | stoichiometry N [1]: 0.91 sites

RRAS2 T52R (from UniProt P62070 1-179) (domain or fragment)
fold reduction in binding affinity against wild-type RRAS2 [3]: 7 fold

MRAS, GMPPNP-bound (from UniProt O14807 1-178) (domain or fragment)
Kd (PI3Kα-RBD-T208A (human)): 19.5 µM | stoichiometry N (PI3Kα-RBD-T208A (human)): 0.93 sites

RRAS2 (wild type) (from UniProt P62070 1-179) (domain or fragment)
Kd [2]: 3.9 µM | dH [2]: -17 kcal/mol | fold decrease in affinity against wild-type p110α-RBD [4]: 5 fold | fold decrease in affinity against wild-type p110α-RBD [5]: 5 fold | Kd [6]: 14 µM | fold reduction in affinity against wild-type p110α-RBD [7]: 15 fold

RRAS2-E74A, GMPPNP-bound (from UniProt P62070 1-179) (domain or fragment)
Kd [1]: 12.4 µM | stoichiometry N [1]: 0.83 sites

Reference: article PMC11718114
